Source: article PMC7086394 (Bioconjugate Chemistry, 2020)
Where no end group is shown, it is not given here.

Target: T1, K3GW (acetylated N-terminus)
T1 peptide: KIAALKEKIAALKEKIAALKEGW
Assay: ITC

B1: E3GY (peptide)
peptide: Ac-EIAALEKEIAALEKEIAALEKGY
Work on B1 yielded a Kd of 73 nM and a dH of -18.4 kcal/mol.
